Results as given in the supplement of paper PMC10567573.

B1: PPP2R2B (parent)
chain: RNTKRDVTLEASRENSKPRAILKP
B2: CAMK2A (parent)
chain: ILLVGYPPFWDEDQHRLYKQIKAG

Variants of: B1
Test: protein stability index of a GFP-peptide fusion (GPS, HEK-293T) (PSI 1-6); higher = more stable
Settings: c terminus: a fixed tail appended
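Further: lentivirally expressed fusions sorted by FACS into six bins by GFP to DsRed ratio, PSI derived from sequencing read proportions per bin multiplied by bin number.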

Protein stability index, by site and new letter:
K4: N 4.77; D 4.72; R 4.54; C 3.8; W 3.39; V 4.19; E 4.6; P 4.88; Y 4.42; L 4.61; H 4.84; G 4.61; S 4.92; I 4.29; A 4.43; M 4.71; T 4.82; F 4.42; Q 4.96
S12: E 4.95; R 4.41; P 4.45; I 4.07; A 4.12; Q 4.42; Y 4.18; D 4.8; M 4.12; G 5.13; L 3.96; F 3.58; V 4.33; H 4.73; N 4.43; C 3.95; T 4.79; K 4.34; W 3.79
L9: S 4.89; V 4.59; I 4.38; H 4.46; C 4.78; K 4.26; T 4.96; N 4.22; W 4.34; A 4.9; P 4.4; F 4.11; M 4.84; D 5.09; Q 5.07; G 4.88; Y 4.52; R 4.84; E 4.78
R13: H 5.06; F 3.98; P 4.46; D 5.09; I 4.53; Y 4.37; W 3.56; S 4.91; E 5.14; C 4.16; G 5.06; Q 4.75; K 4.69; N 4.83; V 4.67; M 4.64; L 4.44; A 4.92; T 4.07
N2: S 4.62; T 4.42; F 4.51; D 4.89; M 4.4; I 4.69; L 3.72; Q 4.06; G 4.81; C 4.27; K 4.51; A 4.31; Y 4.37; R 4.02; V 4.1; H 4.66; W 3.34; P 4.31; E 4.82
E14: Q 4.97; H 4.49; K 4.12; S 4.45; Y 3.67; P 4.3; N 4.72; I 3.72; D 4.4; W 3.87; V 3.79; L 4.04; R 4.14; T 4.58; C 3.9; M 3.88; A 4.66; F 3.88; G 4.4
A11: N 4.3; P 4.23; V 4.49; Q 4.28; T 4.44; M 4.36; L 3.35; D 4.78; S 4.67; F 3.59; C 4.52; E 5.24; R 4.58; W 3.95; I 3.92; Y 3.92; K 4.23; G 4.49; H 4.8
R5: G 5.07; E 5.03; D 4.68; I 4.19; A 5.17; V 4.91; M 3.86; S 4.49; K 4.62; N 4.92; F 4.44; C 4.43; Q 4.54; W 3.87; H 4.85; T 4.94; L 4.4; P 4.79; Y 4.26
N15: I 4.59; G 4.49; Q 4.73; K 4.82; P 4.32; M 4.09; R 4.22; W 3.77; F 4.66; V 4.45; S 4.85; Y 4.09; E 4.92; T 4.49; D 4.77; C 4.13; H 3.94; A 4.29; L 4.53
V7: N 4.76; M 4.81; S 4.58; Q 4.8; H 4.67; F 4.43; T 4.81; W 4.61; P 4.98; E 4.46; K 4.6; L 4.42; A 4.19; G 4.83; Y 4.63; R 4.59; I 4.25; C 3.77; D 4.86
E10: A 4.52; R 4.01; I 4.14; L 3.6; T 3.7; V 4.35; M 3.83; Y 4; C 3.86; P 4.55; W 2.77; D 4.64; K 4.52; H 4.12; Q 4.33; F 3.49; G 4.32; N 4.25; S 4.38
D6: Y 3.79; K 4.45; Q 4.46; F 3.83; H 4.49; T 4.34; W 3.27; L 3.94; V 4.08; E 4.49; C 4.29; R 4.29; P 3.81; M 4.33; I 3.64; S 4.55; A 4.64; N 4.55; G 4.44
R1: T 4.99; A 4.61; K 4.65; H 4.72; V 4.44; I 4.61; P 4.27; L 4.62; Y 4.22; M 4.44; N 4.79; E 4.31; W 4.45; S 4.47; C 4.88; D 4.97; Q 4.81; G 4.9; F 4.29
S16: F 4.38; H 4.57; E 4.75; A 4.51; R 4.24; I 4.19; N 4.48; L 4.16; P 4.96; T 4.2; K 4.23; M 4.53; C 4.23; G 4.42; D 4.58; Q 4.61
T3: S 4.61; P 4.53; E 4.88; C 4.55; D 4.81; L 4.64; R 4.45; A 4.87; K 4.91; N 3.95; F 4.17; V 4.57; Y 3.84; M 4.35; H 4.4; I 4.45; Q 4.75; W 4.05; G 4.29
T8: E 4.9; C 4.2; G 4.54; L 4.62; K 4.86; P 4.76; V 4.25; H 4.35; Y 4.31; A 4.72; S 4.3; N 4.98; I 4.35; R 4.68; D 5.02; Q 4.62; M 4.34; W 3.66; F 3.88

Variants of: B2
Test: as above
Settings: c terminus: a fixed tail appended

Protein stability index: each site, then its substitutions
G24: K 1.7; Q 3.66; H 2.08; V 2.81; P 1.65; D 1.87; S 2.52; L 1.8; A 2.05; R 2.4; T 2.58; W 1.96; C 2.27; I 2.71; M 1.58; E 1.36; Y 2.39; N 3.14; F 1.51
A23: I 2.82; H 1.58; W 3.2; Y 2.73; K 2.1; N 2.67; L 2.11; P 1.8; V 1.98; T 1.27; Q 2.82; R 2.21; S 2.46; M 2.06
